In patent US20230227565A1, “Method for Treating CD127-Positive Cancers by Administering an Anti-CD127 Agent” (OSE IMMUNOTHERAPEUTICS, priority 2021, published 2023):

Legend:
normal T cells = experiment: Phagocytosis of normal T cells by macrophages; assay type: cell-based, human; conditions: FIG. 10
Method: (§1) Phagocytosis assays. In vitro phagocytosis assays were performed by 1-hour coculture of 2,5×10^4 human primary M1 or THP1 macrophages labeled with CellTrackerGreen (ThermoFisher, Waltham, Mass., USA, 1/2000, 20 min at 37° C.) and 5×10^4 leukemic cells labeled with CPD (ThermoFisher, 1/2000 10 min at 37° C.) in serum-free RPMI. Phagocytosis was analyzed by a CytoFLEX flow cytometer (Beckman, Brea, Calif., USA) and analysis using FlowJo software (TreeStar, BD Life Sciences Franklin Lakes, N.J., USAs). The phagocytic index was calculated as follows: fold change of percentage of CPD+ cells in CTG+ macrophages compared to the one detected by treatment with istotype control multiplied by the fold change in geometric mean in APC fluorescence (CPD) in CTG+ macrophages compared to the one detected with isotype control.

macrophages [1] = experiment: Toxicity on macrophages (viability); conditions: FIG. 9; increasing doses
macrophages [2] = experiment: Phagocytosis of macrophages by macrophages (autophagocytosis); conditions: FIG. 11A
Method: as §1

Q: With “5F9: reference pro-phagocytic anti-CD47 antibody” as the substance, how does the “phagocytosis of normal T cells by macrophages” value (normal T cells) read?
A: A similar result is obtained

Q: And the “overall number of live macrophages” value (macrophages [1])?
A: drastically reduced

Q: And the autophagocytosis of macrophages (macrophages [2])?
A: have an autophagocytosis activity
